Residue numbers refer to the chain shown, from its start.
T1: human CD46 (recombinant antigen used in affinity and mapping experiments) (human, UniProt P15529 35-285, limits assumed)
T1 construct: also called CD46 antigen
T1 sequence (looked up): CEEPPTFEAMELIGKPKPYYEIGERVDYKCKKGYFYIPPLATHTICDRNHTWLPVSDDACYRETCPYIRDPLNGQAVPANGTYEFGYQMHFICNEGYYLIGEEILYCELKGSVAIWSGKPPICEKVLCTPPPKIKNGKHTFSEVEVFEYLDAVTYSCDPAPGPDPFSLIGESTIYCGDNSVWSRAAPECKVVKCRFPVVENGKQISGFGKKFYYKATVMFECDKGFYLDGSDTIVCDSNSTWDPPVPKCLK

T2: marmoset CD46 homolog (marmoset (Callithrix jacchus), UniProt Q8HYX8 33-285, limits assumed)
T2 sequence (looked up): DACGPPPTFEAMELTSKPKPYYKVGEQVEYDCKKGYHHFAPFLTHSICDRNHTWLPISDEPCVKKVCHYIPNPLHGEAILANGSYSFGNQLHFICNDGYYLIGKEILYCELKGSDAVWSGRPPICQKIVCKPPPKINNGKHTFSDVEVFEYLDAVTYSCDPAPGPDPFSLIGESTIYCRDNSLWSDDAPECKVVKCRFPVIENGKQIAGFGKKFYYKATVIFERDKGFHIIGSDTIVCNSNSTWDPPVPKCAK

B1: humanized antibody hSC1.N71 (antibody, human IgG1, V domains shown)
VH: QVQLQESGPGLVKPSETLSLTCTVSGGSVSSYDISWIRQPPGKGLEWIGVIWTDGGTNYNSAFMSRVTISVDTSKNQFSLKLSSVTAADTAVYYCARVYDGYPWFAYWGQGTLVTVSS
VL: DIQMTQSPSSLSASVGDRVTITCRASQGISNYLNWYQQKPGKAPKLLIYYTSSLHSGVPSRFSGSGSGTDFTLTISSLQPEDFATYYCQQYIKLPWTFGGGTKLEIKR
notes: also called humanized SC1.N71; human SC1.N71
B2: humanized antibody hSC1.N149 (antibody, human IgG1, V domains shown)
VH: QVQLVQSGAEVKKPGASVKVSCKASGYTFTDYNMDWVRQAPGQGLEWMGDINPNNGDTFYNQKFKGRVTMTTDTSTSTAYMELRSLRSDDTAVYYCARSKYDNYPWFAYWGQGTLVTVSS
VL: B1 VL with G28D, S30N
B3: N146.2 (antibody, IgG1, V domains shown)
VH: EVQLVESGGGLVKPGGSLKLSCAASGFTFSSFGMSWVRQTPEKRLEWVAAINSNGGNTYYSDTVKGRFTISRDNAKNTLYLQMSSLRSADTALYYCARVVHFDVWGAGTTVTVSS
VL: AIQMTQTTSSLSASLGDRVTISCSASQDISNYLNWYQQKPDGTVKLLIYYTSSLHSGVPSRFSGSGSGTDYSLTISNVEPEDVATYYCQQYSELPYTFGGGTKLEINR
notes: Kept apart from m10, which is the mouse/human chimeric form of the same clone; also called SC1.N146 (murine hybridoma clone)
B4: N50.3 (antibody, IgG2b, V domains shown)
VH: EVLLHQSGPELVKPGASVKIPCKASGYTFTDYNMDWVKQSHGKSLEWIGDINPNNGGTFYNQKFKGKATLTVHKSSSTAFMELRSLTSEDTAVYYCTRSKYDNYPWFAYWGQGTLVTVSA
VL: DIQMTQITSSLSASLGDRVTISCSASQGISNYLNWYQQKPDGTVKLLIYYTSSLHSGVPSRFRGSGSGTNYSLTISNLEPEDIATYYCQQYIKLPWTFGGGTKLEIKR
notes: .3 is the subclone suffix; also called SC1.N50
B5: N95.1 (antibody, IgG2a, V domains shown)
VH: QVQLQQSGAELARPGASVKLSCKASDYTFTSYGISWVKQRTGQGLEWIGEIFPRSGNTYYNEKFKGKATLTADKSSSTAYMELRSLTSEDSAVYFCARGLGGAMDYWGQGTSVIVSS
VL: DIVMTQAAPSVPVTPGESVSISCRSSKSLLHSNGNTYLYWFLQRPGQSPQLLIYRMSNLASGVPDRFSGSGSGTTFTLRISGVEAEDVGVYYCMQHLEYPCTFGGGTKLEIKR
notes: .1 is the subclone suffix; also called SC1.N95
B6: N135.1 (antibody, IgG2b, V domains shown)
VH: DVQLVESGGGLVQPGGSRKLSCAASGFTFSSFGMHWVRQAPEKGLEWVAYISSATSAIYYADTVKGRFTISRDNPTNTLFLQMTSLRSEDTAMYYCARKGNNYFDYWGQGTTLTVSS
VL: QIVLTQSPAIMSASPGEKVTLSCSATSSVTYMHWLQQKPGSSPKPWIYRTSNLASGVPARFRGSGSGTSYSLTISSMEAEDAATYYCQQYHSYPPTFGGGTKLEIKR
notes: .1 is the subclone suffix; also called SC1.N135

Key:
[1] = target: human CD46 on the cell surface (human), P15529; experiment: cell-based or functional assay
[2] = target: T1, human CD46 (recombinant antigen used in …); experiment: SPR (Biacore), human CD46 antigen series, 1:1 Langmuir model
[3] = target: T1, human CD46 (recombinant antigen used in …); experiment: surface plasmon resonance (Biacore, superscript B), antigen concentration series, 1:1 Langmuir model
Description: (§1) With regard to the data, affinity was measured in three ways to ensure accuracy. […] Second, the affinities and kinetic constants kₒₙ and koff of the selected modulators were then measured using bio-layer interferometry analysis on a ForteBIO RED (ForteBIO, Inc.) with a standard antigen concentration series. Finally, the affinity of selected modulators was measured by surface plasmon resonance (Biacore System, GE Healthcare). Based on a standard antigen concentration series and using a 1:1 Langmuir binding model, the Kd of the antibody binding to antigen and the kinetic constants kₒₙ and koff were determined.

marmoset CD46 homolog = target: T2, marmoset CD46 homolog; experiment: ForteBIO, concentration series of recombinant monomeric CD46 homolog
Description: Finally, cross-reactivity with regard to cynomolgus, marmoset, and squirrel monkey CD46 homologs were evaluated in ForteBIO using a concentration series with recombinantly expressed, monomeric CD46 antigens.

[4] = target: T1, human CD46 (recombinant antigen used in …); experiment: bio-layer interferometry (ForteBIO, superscript F), antigen concentration series
Description: as §1

Binder	effective concentrations causing 50% cell death (EC50), HEK-293T cells, streptavidin-saporin [1] [nM]	binding result (marmoset CD46 homolog)	Kd [4] [nM]	also measured
B1	0.0266	–	–	Kd [2]: 0.7 nM
B2	0.174	–	–	–
B3	–	no binding	–	Kd [3]: 1.5 nM
B4	–	–	1	–
B5	–	no binding	8	–
B6	–	no binding	1	–

Source: patent US20170081419A1 (AbbVie / Abbott, published 2017)
